Measurements from patent US20150166666A1 (Chugai, published 2015).
Changes are numbered by the printed parent chain. Where two headings read alike, the source gives them in different places. Each block holds one binder with its values, some of them ahead of it.

Tests used:
[1] = target: T1, Soluble recombinant human IL-6 receptor (SR344) (human, UniProt P08887 20-344, biotinylated (sites not given) only in the membrane-type dissociation assay); test: SPR, Biacore T100, soluble IL-6 receptor as analyte
T1 construct: range 1-344; also called soluble IL-6 receptor; soluble human IL-6 receptor
T1 sequence (looked up): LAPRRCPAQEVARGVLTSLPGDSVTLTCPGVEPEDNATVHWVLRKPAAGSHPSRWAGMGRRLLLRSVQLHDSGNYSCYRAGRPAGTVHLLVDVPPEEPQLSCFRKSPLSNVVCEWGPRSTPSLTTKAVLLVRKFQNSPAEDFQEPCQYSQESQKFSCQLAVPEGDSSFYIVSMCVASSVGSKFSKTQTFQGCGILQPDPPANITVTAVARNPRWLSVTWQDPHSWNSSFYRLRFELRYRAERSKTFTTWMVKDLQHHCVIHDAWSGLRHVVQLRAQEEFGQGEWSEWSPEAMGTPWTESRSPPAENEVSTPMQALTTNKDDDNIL
Procedure: (§1) Antigen-antibody reaction kinetics was analyzed using Biacore T100 (GE Healthcare). The soluble human IL-6 receptor-antibody interaction was measured by immobilizing appropriate amounts of protein A or protein A/G or anti-IgG (γ-chain specific) F(ab′)2 onto a sensor chip by amine coupling method, binding antibodies of interest onto the chip at pH7.4, and then running soluble IL-6 receptor adjusted to various concentrations at pH7.4 over the chip as an analyte. All measurements were carried out at 37° C. The kinetic parameters, association rate constant kₐ (1/Ms) and dissociation rate constant kd (1/s) were calculated from the sensorgrams obtained by measurement. Then, KD (M) was determined based on the rate constants. The respective parameters were determined using Biacore T100 Evaluation Software (GE Healthcare).

[2] = target: T1, Soluble recombinant human IL-6 receptor …; test: cell-based or functional assay
[3] = target: T1, Soluble recombinant human IL-6 receptor …; test: SPR, Biacore T100, biotinylated SR344 on streptavidin chip as membrane-type IL-6 receptor, ratio of dissociation rates
Procedure: The rates of dissociation of TOCILIZUMAB, Fv3-M73, and Fv4-M73 from membrane-type IL-6 receptor at pH 7.4 and 5.8 were determined.
(§2) The antigen-antibody reaction with membrane-type IL-6 receptor at pH 5.8 and pH 7.4 was observed using Biacore T100 (GE Healthcare). The binding to membrane-type IL-6 receptor was assessed by evaluating the binding to soluble human IL-6 receptor immobilized onto the sensor chip. SR344 was biotinylated by a method known to those skilled in the art. Based on the affinity between biotin and streptavidin, biotinylated soluble human IL-6 receptor was immobilized onto the sensor chip via streptavidin. All measurements were conducted at 37° C. The mobile phase buffer was 10 mM MES (pH 5.8), 150 mM NaCl, and 0.05% Tween 20. […] The dissociation rate constant (kd (1/s)) at pH 5.8 was calculated using Biacore T100 Evaluation Software (GE Healthcare) by fitting only the dissociation phase at pH 5.8. The sample concentration was 0.25 μg/ml. Binding was carried out in 10 mM MES (pH 7.4), 150 mM NaCl, and 0.05% Tween 20, and dissociation was carried out in 10 mM MES (pH 5.8), 150 mM NaCl, and 0.05% Tween 20. Likewise, the dissociation rate constant (kd (1/s)) at pH 7.4 was calculated using Biacore T100 Evaluation Software (GE Healthcare) by fitting only the dissociation phase at pH 7.4. The sample concentration was 0.5 μg/ml. Binding was carried out in 10 mM MES (pH 7.4), 150 mM NaCl, and 0.05% Tween 20, and dissociation was carried out in 10 mM MES (pH 7.4), 150 mM NaCl, and 0.05% Tween 20.

[4] = target: T1, Soluble recombinant human IL-6 receptor …; test: as above; remark: listed apart in the source
Procedure: as §2

[5] = target: T2, Soluble human FcRn (complex of FcRn and beta2-microglobulin) (human, UniProt P55899 24-290; P16213 21-119); test: Biacore, binding to human FcRn
T2 construct: Both constructs are stated with their signal regions (Met1-Leu290; Met1-Met119)

[6] = target: T1, Soluble recombinant human IL-6 receptor …; test: SPR, Biacore T100, antibody captured on chip, soluble IL-6 receptor as analyte; ratio against TOCILIZUMAB
Procedure: as §1

[7] = target: T1, Soluble recombinant human IL-6 receptor …; test: cell-based or functional assay; remark: listed apart in the source
[8] = target: T2, Soluble human FcRn (complex of FcRn and …); test: Biacore, binding to human FcRn; remark: listed apart in the source

fold higher affinity than TOCILIZUMAB [1]: ~6 times
IC50 (read off the curve) [2]: ~0.1 µg/mL
B1: H53/L28 (H chain H53-IgG1; L chain L28-kappa) (antibody, V domains shown)
VH: QVQLQESGPGLVKPSETLSLTCAVSGYSISDDHAWSWVRQPPGEGLEWIGYISYSGITNYNPSLKGRVTISRDTSKNQFSLKLSSVTAADTAAYYCARSLARTTAMDYWGEGTLVTVSS
VL: DIQMTQSPSSLSASVGDSVTITCQASQDISSYLNWYQQKPGKAPELLIYYGSELHSGVPSRFSGSGSGTDFTFTISSLEAEDAATYYCQQGNSLPYTFGQGTKVEIER
notes: IgG1/kappa; also called TOCILIZUMAB with reduced isoelectric point

kd (pH 5.8)/kd (pH 7.4), pH … [3]: 10.9
B2: Fv3-M73 (H chain VH4-M73; L chain VL1-kappa) (antibody, V domains shown)
VH: QVQLQESGPGLVKPSETLSLTCAVSGHSISHDHAWSWVRQPPGEGLEWIGFISYSGITNYNPTLQGRVTISRDNSKNTLYLQMNSLRAEDTAVYYCARSLARTTAMDYWGEGTLVTVSS
VL: B1 VL with Q27R, Y32H, E53H, H55L, Q89G, S93R
notes: Fully humanized

kd (pH 5.8)/kd (pH 7.4), pH … [3]: 10.1
B3: Fv4-M73 (H chain VH3-M73; L chain VL3-kappa) (antibody, V domains shown)
VH: B2 VH with T63S
VL: B1 VL with Q27T, Y32H, E53H, H55L, Q89G, S93R
notes: Fully humanized

kd (pH 5.8)/kd (pH 7.4), pH … [4]: 2.59
B4: H3pI/L73 (H chain H3pI-IgG1; L chain L73-kappa) (antibody, V domains shown)
VH: B1 VH with Y27H, D31H, W35H
VL: B1 VL with D28H, Y32H, E53H, Q89G, S93R
notes: IgG1/kappa

kd (pH 5.8)/kd (pH 7.4), pH … [4]: 1
Kd [5]: 1620 nM
IC50 (read off the curve) [2]: ~0.5 µg/mL
kd (pH 5.8)/kd (pH 7.4), pH … [3]: 1
B5: TOCILIZUMAB (H chain WT-IgG1; L chain WT-kappa) (antibody)
heavy: not shown
light: not shown
notes: IgG1/kappa; also called TOCILIZUMAB-IgG1; humanized anti-IL-6 receptor IgG1 antibody

fold affinity relative to TOCILIZUMAB [6]: ~60 times
IC50 (read off the curve) [7]: ~0.02 µg/mL
fold higher affinity than TOCILIZUMAB [1]: ~60 times
B6: RDC-23 (H chain RDC23H-IgG1; L chain RDC-23L-kappa) (antibody, V domains shown)
VH: QVQLQESGPGLVRPSQTLSLTCTVSGYSITSDHAWSWVRQPPGRGLEWIGYISYSGITTYNPSLKSRVTMLRDTSKNQFSLRLSSVTAADTAVYYCARVLARITAMDYWGQGSLVTVSS
VL: DIQMTQSPSSLSASVGDRVTITCRASQDISSYLNWYQQKPGKAPKLLIYYTSRLHSGVPSRFSGSGSGTDFTFTISSLQPEDIATYYCGQGNRLPYTFGQGTKVEIKR

fold superior binding than TOCILIZUMAB-IgG1 [8]: ~1.4 times
B7: TOCILIZUMAB-M58 (H chain WT-M58; L chain WT-kappa) (antibody, IgG2)
heavy: QVQLQESGPGLVRPSQTLSLTCTVSGYSITSDHAWSWVRQPPGRGLEWIGYISYSGITTYNPSLKSRVTMLRDTSKNQFSLRLSSVTAADTAVYYCARSLARTTAMDYWGQGSLVTVSSASTKGPSVFPLAPSSKSTSGGTAALGCLVKDYFPEPVTVSWNSGALTSGVHTFPAVLQSSGLYSLSSVVTVPSSNFGTQTYTCNVDHKPSNTKVDKTVERKSCVECPPCPAPPVAGPSVFLFPPKPKDTLMISRTPEVTCVVVDVSQEDPEVQFNWYVDGVEVHNAKTKPREEQFNSTFRVVSVLTVVHQDWLNGKEYKCKVSNKGLPAPIEKTISKTKGQPREPQVYTLPPSQEEMTKNQVSLTCLVKGFYPSDIAVEWESNGQPENNYKTTPPMLDSDGSFFLYSKLTVDKSRWQEGNVFSCSVMHEALHNHYTQKSLSLSP
light: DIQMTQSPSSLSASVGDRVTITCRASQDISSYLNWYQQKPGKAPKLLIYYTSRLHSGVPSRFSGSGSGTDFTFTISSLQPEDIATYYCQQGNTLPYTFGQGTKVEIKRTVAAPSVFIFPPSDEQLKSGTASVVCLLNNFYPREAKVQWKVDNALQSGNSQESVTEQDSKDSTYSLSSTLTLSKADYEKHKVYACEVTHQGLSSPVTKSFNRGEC
notes: M58 constant region: altered IgG2 (SKSC with further changes, Gly446 and Lys447 deleted)

fold superior binding than TOCILIZUMAB-IgG1 [8]: ~3.8 times
B8: TOCILIZUMAB-M73 (H chain WT-M73; L chain WT-kappa) (antibody)
heavy: B7 heavy with N432A
light: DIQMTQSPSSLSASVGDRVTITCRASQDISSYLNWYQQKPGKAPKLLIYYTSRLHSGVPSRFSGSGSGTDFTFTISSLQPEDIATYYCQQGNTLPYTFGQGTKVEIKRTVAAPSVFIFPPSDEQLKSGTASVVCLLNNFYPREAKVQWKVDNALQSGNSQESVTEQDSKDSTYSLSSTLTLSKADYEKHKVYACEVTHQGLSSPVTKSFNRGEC
notes: M73 constant region: M58 with asparagine 434 (EU) changed to alanine
